B1: …-1 (TCR)
alpha TRAV2 TRAJ40 CDR3: CAVEDRDSGTYKYIF
beta TRBV18 TRBJ2-1 CDR3: CASSPSRGAPEYNEQFF
B2: TCR766 (TCR)
alpha TRAV17 TRAJ34 CDR3: CATASYNTDKLIF
beta TRBV4-3 TRBJ1-5 CDR3: CASSQGATGGSNQPQHF
B3: TCR CVVRGQAGTALIF / CASSGHWNTEAFF (TCR)
alpha TRAV10 TRAJ15 CDR3: CVVRGQAGTALIF
beta TRBV19 TRBJ1-1 CDR3: CASSGHWNTEAFF
B4: TCR CIVRVGTNMDSNYQLIW / CASSKSYNEQFF (TCR)
alpha TRAV26-1 TRAJ33 CDR3: CIVRVGTNMDSNYQLIW
beta TRBV19 TRBJ2-1 CDR3: CASSKSYNEQFF
B5: TCR512 (TCR)
alpha TRAV13-1 TRAJ23 CDR3: CAAPYNQGGKLIF
beta TRBV19 TRBJ1-5 CDR3: CASSIVRGLYSNQPQHF
B6: …-1 (TCR)
alpha TRAV5 TRAJ8 CDR3: CAEMDTGFQKLVF
beta TRBV6-5 TRBJ1-1 CDR3: CASSGQGSTEAFF
B7: TCR CATDSYNTDKLIF / CASSQGLGPTNYGYTF (TCR)
alpha TRAV17 TRAJ34 CDR3: CATDSYNTDKLIF
beta TRBV4-3 TRBJ1-2 CDR3: CASSQGLGPTNYGYTF
B8: …-1 (TCR)
alpha TRAV38-2/DV8 TRAJ39 CDR3: CAYRSANNAGNMLTF
beta TRBV6-5 TRBJ1-5 CDR3: CASRTSGGNQPQHF
B9: TCR CAASMSTNQGGKLIF / CSADRYAYEQYF (TCR)
alpha TRAV13-1 TRAJ23 CDR3: CAASMSTNQGGKLIF
beta TRBV20-1 TRBJ2-7 CDR3: CSADRYAYEQYF
B10: …-1 (TCR)
alpha TRAV10 TRAJ41 CDR3: CVVSEGGYALNF
beta TRBV5-1 TRBJ1-5 CDR3: CASSDGTDSNQPQHF
B11: …-1 (TCR)
alpha TRAV8-6 TRAJ42 CDR3: CAVMGYGGSQGNLIF
beta TRBV4-3 TRBJ2-1 CDR3: CASSQELGVYNEQFF
B12: TCR872 (TCR)
alpha TRAV17 TRAJ34 CDR3: CATVGYNTDKLIF
beta TRBV4-3 TRBJ1-4 CDR3: CASSQGLGPTNEKLFF
B13: TCR CATVGYNTDKLIF / CASSQGQAATNEKLFF (TCR)
alpha TRAV17 TRAJ34 CDR3: CATVGYNTDKLIF
beta TRBV4-3 TRBJ1-4 CDR3: CASSQGQAATNEKLFF
B14: TCR CAVSEGRSNQGGKLIF / CASSSQGRENEQYF (TCR)
alpha TRAV8-6 TRAJ23 CDR3: CAVSEGRSNQGGKLIF
beta TRBV19 TRBJ2-7 CDR3: CASSSQGRENEQYF
B15: …-1 (TCR)
alpha TRAV21 TRAJ46 CDR3: CAVRPKEGSGDKLTF
beta TRBV2 TRBJ2-2 CDR3: CASSESGRGPGELFF
B16: TCR CILRGGTNQGGKLIF / CSAEGQGAGNTIYF (TCR)
alpha TRAV26-2 TRAJ23 CDR3: CILRGGTNQGGKLIF
beta TRBV20-1 TRBJ1-3 CDR3: CSAEGQGAGNTIYF
B17: …-1 (TCR)
alpha TRAV19 TRAJ45 CDR3: CALSEDAGGGADGLTF
beta TRBV12-3 TRBJ2-5 CDR3: CASRRHQQETQYF
B18: …-1 (TCR)
alpha TRAV20 TRAJ52 CDR3: CAVQAPGTSYGKLTF
beta TRBV24-1 TRBJ2-3 CDR3: CATSVGTSGYTQYF
B19: …-1 (TCR)
alpha TRAV26-2 TRAJ41 CDR3: CILRDSNSGYALNF
beta TRBV7-8 TRBJ1-5 CDR3: CASSSGTHRSPQHF
B20: TCR CAVSDRDSGNTPLVF / CASSQGDVNYGYTF (TCR)
alpha TRAV8-6 TRAJ29 CDR3: CAVSDRDSGNTPLVF
beta TRBV4-3 TRBJ1-2 CDR3: CASSQGDVNYGYTF
B21: TCR CAVQELARLMF / CASSVEGYSSPLHF (TCR)
alpha TRAV20 TRAJ31 CDR3: CAVQELARLMF
beta TRBV6-1 TRBJ1-6 CDR3: CASSVEGYSSPLHF
B22: …-1 (TCR)
alpha TRAV8-4 TRAJ9 CDR3: CAVNGGFKTIF
beta TRBV6-1 TRBJ2-1 CDR3: CASRDRNQYNEQFF
B23: …-1 (TCR)
alpha TRAV27 TRAJ26 CDR3: CKYGQNFVF
beta TRBV19 TRBJ2-3 CDR3: CASSRPGLNTDTQYF
B24: …-1 (TCR)
alpha TRAV21 TRAJ30 CDR3: CAVGDDKIIF
beta TRBV12-3 TRBJ1-1 CDR3: CASSSRSGLKAFF
B25: TCR CAVGATDSWGKFQF / CASSIDATGHSNQPQHF (TCR)
alpha TRAV8-3 TRAJ24 CDR3: CAVGATDSWGKFQF
beta TRBV19 TRBJ1-5 CDR3: CASSIDATGHSNQPQHF
B26: TCR CAAPGANNLFF / CASSQPHRTSVTGELFF (TCR)
alpha TRAV13-1 TRAJ36 CDR3: CAAPGANNLFF
beta TRBV4-2 TRBJ2-2 CDR3: CASSQPHRTSVTGELFF
B27: TCR CATGSYNTDKLIF / CASSPGLAGGTGELFF (TCR)
alpha TRAV17 TRAJ34 CDR3: CATGSYNTDKLIF
beta TRBV4-3 TRBJ2-2 CDR3: CASSPGLAGGTGELFF
B28: TCR CALSEAFPPLYNFNKFYF / CASSLFATSGKDTQYF (TCR)
alpha TRAV19 TRAJ21 CDR3: CALSEAFPPLYNFNKFYF
beta TRBV5-6 TRBJ2-3 CDR3: CASSLFATSGKDTQYF
B29: TCR CAAFENVLHC / CASSERPYPGETQYF (TCR)
alpha TRAV13-1 TRAJ35 CDR3: CAAFENVLHC
beta TRBV6-1 TRBJ2-5 CDR3: CASSERPYPGETQYF
B30: TCR867 (TCR)
alpha TRAV17 TRAJ34 CDR3: CATDAYNTDKLIF
beta TRBV4-3 TRBJ1-3 CDR3: CASSQGRTASGNTIYF
B31: TCR819 (TCR)
alpha TRAV17 TRAJ34 CDR3: CATAAYNTDKLIF
beta TRBV4-3 TRBJ1-2 CDR3: CASSQAMTGGSDYGYTF
B32: TCR CIVRVLTNQGGKLIF / CSAGSGLGGYNEQFF (TCR)
alpha TRAV26-1 TRAJ23 CDR3: CIVRVLTNQGGKLIF
beta TRBV20-1 TRBJ2-1 CDR3: CSAGSGLGGYNEQFF
B33: …-1 (TCR)
alpha TRAV17 TRAJ54 CDR3: CATDAAGAQKLVF
beta TRBV19 TRBJ2-1 CDR3: CASSILAGVYNEQFF
B34: …-1 (TCR)
alpha TRAV10 TRAJ26 CDR3: CVVSPTGGQNFVF
beta TRBV6-2 TRBJ2-6 CDR3: CASSYWGLGANVLTF
B35: …-1 (TCR)
alpha TRAV9-2 TRAJ8 CDR3: CALSEGSTGFQKLVF
beta TRBV7-8 TRBJ1-3 CDR3: CASSVAGNGNTIYF
B36: …-1 (TCR)
alpha TRAV9-2 TRAJ4 CDR3: CALPSLSGGYNKLIF
beta TRBV7-8 TRBJ1-3 CDR3: CASSLAGNGNTIYF
B37: …-1 (TCR)
alpha TRAV29/DV5 TRAJ48 CDR3: CAAKGGGNEKLTF
beta TRBV12-3 TRBJ1-3 CDR3: CASTPRVLQFSGNTIYF
B38: TCR806 (TCR)
alpha TRAV26-1 TRAJ33 CDR3: CIVRGGTNMDSNYQLIW
beta TRBV19 TRBJ1-6 CDR3: CASTGQGNSPLHF
B39: TCR839 (TCR)
alpha TRAV12-2 TRAJ37 CDR3: CAVNPPWSNTGKLIF
beta TRBV19 TRBJ2-5 CDR3: CASTRGVGTSGAKETQYF
B40: TCR CATDSYNTDKLIF / CASSQGAGAQTYYGYTF (TCR)
alpha TRAV17 TRAJ34 CDR3: CATDSYNTDKLIF
beta TRBV4-3 TRBJ1-2 CDR3: CASSQGAGAQTYYGYTF
B41: TCR CATVAYNTDKLIF / CASSPGRTGGTYYGYTF (TCR)
alpha TRAV17 TRAJ34 CDR3: CATVAYNTDKLIF
beta TRBV4-3 TRBJ1-2 CDR3: CASSPGRTGGTYYGYTF
B42: TCR CAGSSANQAGTALIF / CSARGGQGAPSPLHF (TCR)
alpha TRAV35 TRAJ15 CDR3: CAGSSANQAGTALIF
beta TRBV20-1 TRBJ1-6 CDR3: CSARGGQGAPSPLHF
B43: TCR CIVRVGTNQGGKLIF / CASSMGLALETQYF (TCR)
alpha TRAV26-1 TRAJ23 CDR3: CIVRVGTNQGGKLIF
beta TRBV19 TRBJ2-5 CDR3: CASSMGLALETQYF
B44: TCR CALGPGDNQGGKLIF / CASSLAQAPAGETQYF (TCR)
alpha TRAV9-2 TRAJ23 CDR3: CALGPGDNQGGKLIF
beta TRBV11-1 TRBJ2-5 CDR3: CASSLAQAPAGETQYF
B45: TCR CATDAYNTDKLIF / CASSQGAVPAGNTIYF (TCR)
alpha TRAV17 TRAJ34 CDR3: CATDAYNTDKLIF
beta TRBV4-3 TRBJ1-3 CDR3: CASSQGAVPAGNTIYF
B46: TCR CAVSRAGANNLFF / CASSQGLGPGLFNQPQHF (TCR)
alpha TRAV21 TRAJ36 CDR3: CAVSRAGANNLFF
beta TRBV4-3 TRBJ1-5 CDR3: CASSQGLGPGLFNQPQHF
B47: …-1 (TCR)
alpha TRAV2 TRAJ20 CDR3: CAVEDKHDYKLSF
beta TRBV9 TRBJ1-2 CDR3: CASSFKEGSNYGYTF
B48: …-1 (TCR)
alpha TRAV38-2/DV8 TRAJ39 CDR3: CAYRSFNNAGNMLTF
beta TRBV28 TRBJ1-6 CDR3: CASTETGSNSPLHF
B49: TCR CAANLDNFNKFYF / CATSRGIQPNEKLFF (TCR)
alpha TRAV25 TRAJ21 CDR3: CAANLDNFNKFYF
beta TRBV15 TRBJ1-4 CDR3: CATSRGIQPNEKLFF
B50: …-1 (TCR)
alpha TRAV12-3 TRAJ39 CDR3: CATSYNNAGNMLTF
beta TRBV4-2 TRBJ2-5 CDR3: CASSQGTSGEETQYF
B51: TCR100 (TCR)
alpha TRAV8-3 TRAJ24 CDR3: CAVVTTDSWGKFQF
beta TRBV19 TRBJ1-5 CDR3: CASSDSPTGHGNQPQHF
B52: TCR821 (TCR)
alpha TRAV26-1 TRAJ23 CDR3: CIVMLTTNQGGKLIF
beta TRBV19 TRBJ2-4 CDR3: CASSPGLAGGGSIQYF
B53: TCR CIVSPHGSGNTGKLIF / CASSIGARGQLFF (TCR)
alpha TRAV26-1 TRAJ37 CDR3: CIVSPHGSGNTGKLIF
beta TRBV19 TRBJ1-4 CDR3: CASSIGARGQLFF
B54: TCR CAAPGANNLFF / CASSGTGGQGYNEQFF (TCR)
alpha TRAV13-1 TRAJ36 CDR3: CAAPGANNLFF
beta TRBV2 TRBJ2-1 CDR3: CASSGTGGQGYNEQFF
B55: TCR CATDGGGIGAGSYQLTF / CATSRGGSPPYEQYF (TCR)
alpha TRAV17 TRAJ28 CDR3: CATDGGGIGAGSYQLTF
beta TRBV15 TRBJ2-7 CDR3: CATSRGGSPPYEQYF

The target in the assay is T1, HA69 peptide on HLA DQB1*06:02/DQA1*01:02 (DQ0602) (human).
T1 peptide: AMERNAGSGIIISDT
In words: activation reporter or marker.
For the molecule B1, the binding result is recorded as “no recognition”. The result for B2 reads “recognises”.

For the molecule B3, the binding result is listed as “recognises”.

Take B4: the binding result is given as “recognises”. Regarding B5, the binding result is recorded as “recognises”. Regarding B6, the binding result is reported as “no recognition”. As for B7, the entry is “recognises”; as for B8, “no recognition”; as for B9, “recognises”. The result for B10 reads “no recognition”. As for B11, the entry is “no recognition”; as for B12, “recognises”; as for B13, “recognises”. As to B14, the binding result was “recognises”.

In the case of B15, the binding result was “no recognition”.

B16: the binding result is given as “recognises”. With B17, the binding result was “no recognition”. As for B18, the entry is “no recognition”. On to B19, for which the binding result is “no recognition”. As for B20, the entry is “recognises”. The result for B21 reads “recognises”; that for B22, “no recognition”; that for B23, “no recognition”. As for B24, the entry is “no recognition”. B25: the binding result is recorded as “recognises”. The result for B26 reads “recognises”; that for B27, “recognises”. The result for B28 reads “recognises”.

Turning to B29, the binding result is listed as “recognises”.

With B30, the binding result is given as “recognises”. For the molecule B31, the binding result is reported as “recognises”.

Take B32: the binding result is on record as “recognises”.

On to B33, for which the binding result was “no recognition”. The result for B34 reads “no recognition”. With B35, the binding result is given as “no recognition”. As for B36, the entry is “no recognition”; as for B37, “no recognition”; as for B38, “recognises”. As for B39, the entry is “recognises”; as for B40, “recognises”. As for B41, the entry is “recognises”; as for B42, “recognises”.

In the case of B43, the binding result was “recognises”. Regarding B44, the binding result was “recognises”. With B45, the binding result is on record as “recognises”. B46: the binding result is listed as “recognises”.

Consider B47, for which the binding result was “no recognition”.

Regarding B48, the binding result is recorded as “no recognition”. The result for B49 reads “recognises”; that for B50, “no recognition”. Turning to B51, the binding result is recorded as “recognises”. As for B52, the entry is “recognises”; as for B53, “recognises”; as for B54, “recognises”. As for B55, the entry is “recognises”.

These data come from paper PMC9371724 (2022).
